# Data from patent publication US9574016B2, “Complex of bi-specific antibody and digoxigenin conjugated to a therapeutic or diagnostic agent” (Hoffmann-La Roche Inc., priority 2009, dated 2017).
# “And” between values parts separate entries of the source, which are not always exact repeats. Equal entries are not always repeated. Non-standard residues stand in square brackets, D forms with d. Residues, ends and D or L forms follow the SMILES beside them. No end group written: not given here. PEG3 = NCCOCCOCCOCCC(=O)O
# Assays:
# [1] = Excitation and emission spectra; assay type: physicochemical
# Description: To evaluate whether digoxygenation of Cy5 alters its fluorescence features, we compared the excitation and emission spectra of Cy5 and compared it with the spectra of the newly generated Dig-Cy5 and with Dig-Cy5 within a complex with bispecific antibodies. […] We conclude that Dig-Cy5 and —complexes can be applied for antibody-mediated targeting and in vivo imaging.
# [2] = system: CD22 positive Raji and Ramos cells; assay: FACS analysis with <CD22>-<DIG> and DIG-Cy5; assay type: cell-based; settings: DIG-Cy5 66.4 nM
# Description: For these analyses we used CD22 positive Raji and Ramos cells and the bispecific <CD22>-<DIG> antibody. 3×10^5 cells per well of a 96-well-plate were incubated with 5 ng/ml of the <CD22>-<DIG> antibody in FACS buffer (PBS containing 5% FCS). After washing the cells were incubated with DIG-Cy5 in a final concentration of 66.4 nM. After another washing step cells were analysed with the FACS canto II (BD Biosciences).
# [3] = system: IGF1R expressing tumors (H322M cells); assay: NIRF tumor imaging with Dig-Cy5 complexes, H322M xenograft; assay type: in vivo, mice; settings: 30 min, i.v.
# Description: To analyze if the specific antigen binding functionality of the antibody-complexes can be utilized to specifically deliver imaging reagents to tumor cells, we performed Near Infrared Fluorescence Imaging Studies (NIRF) in vivo. […] These xenografts were either expressing the antigen Her2 (KPL4 cells) or the antigen IGF1R (H322M cells). Subsequently NIRF imaging was performed by using the Maestro system from CRI. Animals were placed in a measuring chamber and the fluorescence was measured over a defined spectral wavelength array, depending on the dye. Spectral information of each pixel of the obtained image was analyzed by a special software which allows to separate different pre-defined spectra, e.g. autoflourescence and the signal of the dye. Theses separated specific signals were quantified by the Maestro software in order to compare different samples.
# [4] = system: H322M (low surface Her2) and KPL4 (high surface Her2) cells; assay: CytoTox-Glo assay of DIG-peptide-<Her2>-<Dig> complexes; assay type: cell-based, human; settings: 48 hours
# Description: To analyze whether the <Her2>-<Dig>-Dig-Peptide complexes, and <IGF1R>-<Dig>-Dig-Peptide complexes mediate specific targeting of their payload towards antigen expressing cells, we made use of the fact that the FALLv1 and Fam5b peptides are cytotoxic. […] To measure the number of dead cells, the CytoTox-Glo assay (Promega Madison, Wis.) was used. To analyze the specificity of the targeting, two cell lines were used: H322M which have low levels of surface Her2 and KPL4 which have high levels of surface Her2.
# For these assays, H322M cells were seeded at a density of 15.000 cells per well in 96 well plates. The cells were incubated for 24 hours at 37° C., 5% CO2 and 85% humidity in RPMI with 10% FCS, Na+Pyrovate, L-Glutamine and NEAA mix. KPL4 cells were seeded at a density of 7.000 cells per well in 96 well plates. The cells were incubated for 24 hours at 37° C., 5% CO2 and 85% humidity in RPMI with 10% FCS, and L-Glutamine. […] The cells were incubated for further 48 hours. After this period, the cells were treated with the CytoTox-Glo-assay reagent according to the manufacturers instructions. In brief, this assay detects dead cells via the presence of a protease in the medium that cleaves a flurogenic peptide in the reagent. The luminescence of this assay therefore represents dead cells. The 96 well plates were then analyzed in a InfiniteF200 luminescence reader (Tecan Austria, Gröding).
# [5] = molecular target: siRNA-DIG (Eg5-siRNA-DIG); assay: SPR (Biacore) binding to mono-digoxygenated siRNA; settings: 25° C.
# Description: (§2) For that, binding properties of the recombinant <Dig> derivatives were analyzed by surface plasmon resonance (SPR) technology using a Biacore T100 or Biacore 3000 instrument (GE Healthcare Bio-Sciences AB, Uppsala). […] It allows a continuous real-time monitoring of ligand/analyte bindings and thus the determination of association rate constants (ka), dissociation rate constants (kd), and equilibrium constants (KD) in various assay settings. SPR-technology is based on the measurement of the refractive index close to the surface of a gold coated biosensor chip. Changes in the refractive index indicate mass changes on the surface caused by the interaction of immobilized ligand with analyte injected in solution. If molecules bind to immobilized ligand on the surface the mass increases, in case of dissociation the mass decreases. To perform the binding studies capturing anti-human IgG antibody was immobilized on the surface of a CM5 biosensor chip using amine-coupling chemistry. […]
# (§3) Anti-mouse IgG antibody was immobilized on the surface of a CM5 biosensor chip in the same fashion as described above. […] The samples to be analyzed were diluted in HBS-P (10 mM HEPES, pH 7.4, 150 mM NaCl, 0.005% Surfactant P20) and injected at a flow rate of 5 μl/min. […] Signals were detected at a rate of one signal per second.
# (§4) The samples to be analyzed were diluted in HBS-P and injected at a flow rate of 5 μl/min. […]
# [6] = molecular target: siRNA-(2x)DIG (Eg5-siRNA-(2×)DIG); assay: SPR (Biacore) binding to bi-digoxygenated siRNA; settings: 25° C.
# Description: as §2, §3, §4
# [7] = system: DIG-siRNA2349; assay: SPR study, binding to DIG-siRNA2349; settings: analyte DIG-siRNA2349; listed as <DIG>M-19-11
# Description: (§1) For that, binding properties of the recombinant <Dig> derivatives were analyzed by surface plasmon resonance (SPR) technology using a Biacore T100 or Biacore 3000 instrument (GE Healthcare Bio-Sciences AB, Uppsala). This system is well established for the study of molecule interactions. It allows a continuous real-time monitoring of ligand/analyte bindings and thus the determination of association rate constants (ka), dissociation rate constants (kd), and equilibrium constants (KD) in various assay settings. SPR-technology is based on the measurement of the refractive index close to the surface of a gold coated biosensor chip. Changes in the refractive index indicate mass changes on the surface caused by the interaction of immobilized ligand with analyte injected in solution. If molecules bind to immobilized ligand on the surface the mass increases, in case of dissociation the mass decreases. To perform the binding studies capturing anti-human IgG antibody was immobilized on the surface of a CM5 biosensor chip using amine-coupling chemistry. Flow cells were activated with a 1:1 mixture of 0.1 M N-hydroxysuccinimide and 0.1 M 3-(N,N-dimethylamino)propyl-N-ethylcarbodiimide at a flow rate of 5 μl/min. […] A reference control flow cell was treated in the same way but with vehicle buffers only instead of the capturing antibody. […]
# [8] = system: DIG-Myoglobin; assay: SPR study, binding to DIG-myoglobin
# Description: as §1, with “antibody. Surfaces were blocked with an injection of 1 M ethanolamine/HCl pH 8.5. To compare the binding of the humanized protein variants with that of the murine <Dig> IgG from the original hybridoma 19-11, capturing anti-mouse IgG antibody was immobilized on the surface of a CM5 biosensor chip in the same fashion as described above for the anti-human IgG antibody. To evaluate the functionality of the recombinant <Dig> derivatives, binding of the recombinant hu<Dig> modules, incl.” for “antibody.”
# [9] = analyte DIG-Myoglobin, listed as <DIG>M-19-11
molecule,measurement,setting,value
CCN1c2ccc(S(=O)(=O)O)cc2C(C)(C)C1/C=C/C=C/C=C1\N(CCCCCC(=O)NCCNC(=O)CO[C@H]2CC[C@@]3(C)[C@H](CC[C@@H]4[C@@H]3C[C@@H](O)[C@]3(C)[C@@H](C5=CC(=O)OC5)CC[C@]43O)C2)c2ccc(S(=O)(=O)O)cc2C1(C)C (stereo partly drawn) [Dig-Cy5],Emission wavelength (max.),[1],670 nm
same,binding to Raji or Ramos cells (FACS),[2],hardly any binding
same,tumor visualization by NIRF,[3],no tumor specific fluorescence
CC[C@H](C)[C@H](NC(=O)[C@H](CCCCN)NC(=O)[C@H](CCC(=O)O)NC(=O)[C@H](CCCCN)NC(=O)[C@H](CO)NC(=O)[C@H](CCCCN)NC(=O)[C@H](CCCNC(=N)N)NC(=O)[C@H](Cc1ccccc1)NC(=O)[C@H](Cc1ccccc1)NC(=O)[C@H](CC(=O)O)NC(=O)CNC(=O)[C@H](CC(C)C)NC(=O)[C@H](CC(C)C)NC(=O)[C@H](C)NC(=O)[C@H](Cc1ccccc1)NC(=O)[C@@H](N)CSC1CC(=O)N(CCNC(=O)CO[C@H]2CC[C@@]3(C)[C@H](CC[C@@H]4[C@@H]3C[C@@H](O)[C@]3(C)[C@@H](C5=CC(=O)OC5)CC[C@]43O)C2)C1=O)C(=O)NCC(=O)N[C@@H](CCCCN)C(=O)N[C@@H](CCC(=O)O)C(=O)N[C@@H](Cc1ccccc1)C(=O)N[C@@H](CCCCN)C(=O)N[C@@H](CCCNC(=N)N)C(=O)N[C@H](C(=O)N[C@H](C(=O)N[C@@H](CCC(N)=O)C(=O)N[C@@H](CCCNC(=N)N)C(=O)N[C@H](C(=O)N[C@@H](CCCCN)C(=O)N[C@@H](CC(=O)O)C(=O)N[C@@H](Cc1ccccc1)C(=O)N[C@@H](CC(C)C)C(=O)N[C@@H](CCCNC(=N)N)C(=O)N[C@@H](CC(N)=O)C(=O)N[C@@H](CC(C)C)C(=O)N[C@H](C(=O)N1CCC[C@H]1C(=O)N[C@@H](CCCNC(=N)N)C(=O)N[C@H](C(=O)N[C@@H](CCC(=O)O)C(=O)N[C@@H](CO)C(N)=O)[C@@H](C)O)C(C)C)[C@@H](C)CC)C(C)C)[C@@H](C)CC (stereo partly drawn) [Dig-FALLv1],"cytotoxicity when delivered by the <Her2>-<Dig> bispecific antibody, H322M compared to KPL4",[4],more toxic to cells expressing higher levels of surface antigen
CC[C@H](C)[C@H](NC(=O)[C@H](CCCCN)NC(=O)[C@H](CCC(=O)O)NC(=O)[C@H](CCCCN)NC(=O)[C@H](CO)NC(=O)[C@H](CCCCN)NC(=O)[C@H](CCCNC(=N)N)NC(=O)[C@H](Cc1ccccc1)NC(=O)[C@H](Cc1ccccc1)NC(=O)[C@H](CC(=O)O)NC(=O)CNC(=O)[C@H](CC(C)C)NC(=O)[C@H](CC(C)C)NC(=O)[C@H](C)NC(=O)[C@@H](N)Cc1ccccc1)C(=O)NCC(=O)N[C@@H](CCCCN)C(=O)N[C@@H](CCC(=O)O)C(=O)N[C@@H](Cc1ccccc1)C(=O)N[C@@H](CCCCN)C(=O)N[C@@H](CCCNC(=N)N)C(=O)N[C@H](C(=O)N[C@H](C(=O)N[C@@H](CCC(N)=O)C(=O)N[C@@H](CCCNC(=N)N)C(=O)N[C@H](C(=O)N[C@@H](CCCCN)C(=O)N[C@@H](CC(=O)O)C(=O)N[C@@H](Cc1ccccc1)C(=O)N[C@@H](CC(C)C)C(=O)N[C@@H](CCCNC(=N)N)C(=O)N[C@@H](CC(N)=O)C(=O)N[C@@H](CC(C)C)C(=O)N[C@H](C(=O)N1CCC[C@H]1C(=O)N[C@@H](CCCNC(=N)N)C(=O)N[C@H](C(=O)N[C@@H](CCC(=O)O)C(=O)N[C@@H](CO)C(N)=O)[C@@H](C)O)C(C)C)[C@@H](C)CC)C(C)C)[C@@H](C)CC [FALLv1],cytotoxicity of the <Her2>-<Dig> complex towards antigen expressing target cells compared to non-complexed peptide,[4],higher
CC[C@H](C)[C@H](NC(=O)[C@H](CCCNC(=N)N)NC(=O)[C@H](Cc1c[nH]cn1)NC(=O)[C@@H](NC(=O)[C@H](CCCCN)NC(=O)[C@H](CCCCN)NC(=O)[C@H](Cc1ccccc1)NC(=O)[C@H](CC(C)C)NC(=O)[C@@H](NC(=O)[C@H](CCCCN)NC(=O)[C@H](CC(C)C)NC(=O)CNC(=O)[C@H](C)NC(=O)CNC(=O)[C@H](CC(C)C)NC(=O)[C@H](CCC(N)=O)NC(=O)[C@H](CCC(N)=O)NC(=O)[C@H](Cc1ccc(O)cc1)NC(=O)[C@H](CCCNC(=N)N)NC(=O)[C@H](Cc1c[nH]cn1)NC(=O)[C@@H](N)CCC(N)=O)C(C)C)[C@@H](C)O)C(=O)N[C@@H](CC(C)C)C(=O)N[C@@H](CCCNC(=N)N)C(=O)N[C@@H](CCCNC(=N)N)C(=O)N[C@@H](CC(C)C)C(=O)N[C@@H](Cc1ccccc1)C(=O)N[C@@H](CC(N)=O)C(=O)N[C@@H](CC(C)C)C(=O)N[C@@H](C)C(=O)N[C@@H](CCCCN)C(=O)O [Fam5b] (H-QHRYQQLGAGLKVLFKKTHRILRRLFNLAK-OH),cytotoxicity of the <Her2>-<Dig> complex towards antigen expressing target cells compared to non-complexed peptide,[4],higher
Cy5 [reference compound],Emission wavelength (max.),[1],670 nm
"DIG-Fam5b: digoxigenin conjugate of Fam5b with TEG-spacer and amino-terminal cystein (C[PEG3]QHRYQQLGAGLKVLFKKTHRILRRLFNLAK; also: digoxigenin conjugate, attachment site not given here)","cytotoxicity when delivered by the <Her2>-<Dig> bispecific antibody, H322M compared to KPL4",[4],correlates with the levels of surface antigen
"murine DIG-IgG 19-11: murine <Dig> IgG1 kappa from mouse hybridoma clone 19-11; VL Seq. ID. NO. 1, VH Seq. ID. NO. 2 (antibody, listed as Mus musculus, V domains shown, murine <Dig> IgG1 kappa from mouse hybridoma clone 19-11; ID; NO) VH: MNFVLSLIFLALILKGVQCEVQLVESGGGLVKPGGSLKLSCAVSGFTFSDYAMSWIRQTPENRLEWVASINIGATYAYYPDSVKGRFTISRDNAKNTLFLQMSSLGSEDTAMYYCARPGSPYEYDKAYYSMAYWGPGTSVTVSS VL: MSSAQFLGLLLLCFQGTRCDVQMTQSTSSLSASLGDRVTISCRASQDIKNYLNWYQQKPGGTVKLLIYYSSTLLSGVPSRFSGRGSGTDFSLTITNLEREDIATYFCQQSITLPPTFGGGTKLEIK",Kd,[5],0.269 nM
same,Kd,[6],0.017 nM
same,ka,[7],3.27e+06 M⁻¹ s⁻¹ and 2.26e+06 M⁻¹ s⁻¹
same,kd,[7],0.000903 s⁻¹ and 0.000838 s⁻¹
same,affinity to DIG-myoglobin relative to <DIG>-hu2 and disulfide-stabilized <DIG> scFv,[8],about a hundred fold better
same,ka,[8]; [9],1.75e+06 M⁻¹ s⁻¹ and 2.28e+06 M⁻¹ s⁻¹
same,kd,[8]; [9],0.000676 s⁻¹ and 0.000675 s⁻¹
